Target: recombinant human insulin (UniProt P01308)
Sequence (P01308 whole entry, looked up): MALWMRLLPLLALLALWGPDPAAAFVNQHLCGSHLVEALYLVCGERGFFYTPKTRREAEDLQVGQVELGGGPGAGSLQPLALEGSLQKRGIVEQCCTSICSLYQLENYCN

recombinant human IDE, inactive mutant E111Q
insulin degradation (residual insulin by ELISA): the mutated IDE degraded only 15% of the insulin under the same conditions

recombinant human wild type insulin degrading enzyme (WT rhIDE)
insulin degradation (residual insulin by ELISA): ~60% degradation following 2 hours at 37 °C

Reference: US20230053258
